Measured values as given in PMC3593993.

Target: constitutively active Go2α (Go2αQ205L), Gal4 DNA-binding domain fusion (pGBKT7-Go2αQ205L) (UniProt P18872)
Experiment: two-hybrid

fold of the interaction (α-galactosidase activity) against Go1αQ205L: 2.5 fold
Substance: Girdin prey of the mating and α-galactosidase experiments (pACT2-Girdin) (from UniProt Q5SNZ0 1318-1873) (domain or fragment)
